From PMC12593362, “Mapping the Role of Monomer Conformation in the Amyloid Formation of α‑Synuclein Splice Variants” (Journal of the American Chemical Society, 2025)

Target: the molecule itself
Assay: thioflavin T fluorescence + pelleting assay + negative stain TEM; de novo self-assembly into amyloid fibrils; 100 μM monomer in 20 mM sodium phosphate pH 7.4 with 0 mM NaCl, 37 °C, shaking with a Teflon polyball

B1: α-synuclein splice variant lacking the residues encoded by exons 3 and 5 (αSynΔ3Δ5) (natural protein)
chain: not shown
notes: made from the αSynΔ3 construct with the exon 5 deletion primers; natural splice isoform; No tag is named; Used as soluble monomer and as sonicated fibril seeds; source: E. coli BL21 DE3, purified (boiling, ammonium sulfate precipitation, anion exchange, SEC)
binding result: binds
